Reference: US20220064286A1 (Genentech, published 2022)

T1: human TIGIT protein (human, UniProt Q495A1 22-141, limits assumed)
T1 construct: Recombinant protein (Genentech) used in ELISA screening and as SPR analyte; also called TIGIT antigen
T1 sequence: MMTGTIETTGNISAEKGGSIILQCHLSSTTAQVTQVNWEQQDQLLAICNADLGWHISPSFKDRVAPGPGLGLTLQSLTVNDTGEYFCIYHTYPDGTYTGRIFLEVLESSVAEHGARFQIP


Key:
[1] = target: cynomolgus monkey (cyno) TIGIT protein (cynomolgus monkey, UniProt A0A7N9I9V4 89-209); experiment: SPR, captured mAb
cynomolgus monkey (cyno) TIGIT protein, sequence (A0A7N9I9V4 entry or part of it): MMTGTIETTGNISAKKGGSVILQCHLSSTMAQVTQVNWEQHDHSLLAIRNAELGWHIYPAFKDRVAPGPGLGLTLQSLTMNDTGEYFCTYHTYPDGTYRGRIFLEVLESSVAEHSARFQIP
Protocol: (§1) Briefly, a series S CM5 biosensor chip was activated with N-ethyl-N′-(3-dimethylaminopropyl)-carbodiimide hydrochloride (EDC) and N-hydroxysuccinimide (NHS) reagents according to the supplier's (GE Healthcare Biosciences, Piscataway, N.J.) instructions, and a human antibody capture kit was applied to couple goat anti-human Fc IgGs in order to achieve approximately 10,000 response units (RU) on each flow cell, followed by blocking un-reacted groups with 1M ethanolamine.
(§2) (flow rate: 30 μl/min) with no regeneration between injections. The sensorgrams were recorded and evaluated by BIAcore™ T200 Evaluation Software (version 2.0) after subtraction of reference cell signal. Association rates (kₒₙ) and dissociation rates (koff) were calculated using a simple one-to-one Langmuir binding model. The equilibrium dissociation constant (KD) was calculated as the ratio koff/kₒₙ.
(§3) The first humanized versions, h6B2, L1H1, h10A5.L1H1, h7E7, L1H1, and h15C8.L1H1, which contain both rat CDRs and framework residues at Vernier positions, and the fully humanized versions, h6B2.L2H5, h10A5.L4H4, h7E7.L5H9, and h15C8.L5H9, which contain only rat CDRs were subject to BIAcore affinity measurement by comparison with original rat antibodies, rat6B2, rat10A5, rat7E7 and rat 15C8. For binding affinity determinations of TIGIT antibodies against human TIGIT, cynomolgus monkey TIGIT and human alanine-scanned TIGIT mutants by single-cycle kinetics, Surface Plasmon Resonance (SRP) measurement with a BIACORE™-T200 instrument was used, as described above.

human TIGIT protein = target: T1, human TIGIT protein; experiment: SPR, captured mAb
Protocol: as §1, §2, §3

Kd [1]	koff [1]	kon [1]	Kd (human TIGIT protein)	koff (human TIGIT protein)	kon (human TIGIT protein)	Binder
0.42 nM	0.000381 s⁻¹	908000 M⁻¹ s⁻¹	0.38 nM	0.00107 s⁻¹	2.82e+06 M⁻¹ s⁻¹	h7E7.L1H3 (antibody, V domains shown, VH: I48M against h7E7.L1H1; FR/HVR pieces) VH: EVQLVQSGAEVKKPGASVKVSCKASGYTFTEYSIYWVRQAPGQRLEIMGRIDPKNGRTYYVDKFKNRATLTADTSASTAYMELSSLRSEDTAVYFCTRIYGFYFDFWGQGTLVTVSS VL: DIQLTQSPSFLSASVGDRVTITCKGSQNVNKYLVWYQQKPGKAPKLLIYNTDNLQSGIPSRFSGSGSGTEYTLTISSLQPEDFATYFCYQYNNGFTFGQGTKVEIK
0.94 nM	0.000206 s⁻¹	219000 M⁻¹ s⁻¹	0.98 nM	0.000597 s⁻¹	610000 M⁻¹ s⁻¹	h15C8.L1H7 (antibody, V domains shown, VH: T71R against h15C8.L1H1; FR/HVR pieces) VH: EVQLVQSGAEVKKPGASVKVSCKASGYTFTEHSIYWLRQAPGQRLEIIGRIDPKNGRTYFVDKFKNRATLTRDTSASTAYMELSSLRSEDTAVYFCARIDGFYFDFWGQGTLVTVSS VL: DIQLTQSPSFLSASVGDRVTITCKGSQNVNKYLVWYQQKPGKAPKLLIYSTDNLQSGIPSRFSGSGSGTEYTLTISSLQPEDFATYFCYQYNNGFTFGQGTKVEIK
0.84 nM	0.000556 s⁻¹	663000 M⁻¹ s⁻¹	0.55 nM	0.000756 s⁻¹	1.38e+06 M⁻¹ s⁻¹	h15C8.L1H6 (antibody, V domains shown, VH: L69I (printed L691) against h15C8.L1H1; FR/HVR pieces) VH: EVQLVQSGAEVKKPGASVKVSCKASGYTFTEHSIYWLRQAPGQRLEIIGRIDPKNGRTYFVDKFKNRATITTDTSASTAYMELSSLRSEDTAVYFCARIDGFYFDFWGQGTLVTVSS VL: DIQLTQSPSFLSASVGDRVTITCKGSQNVNKYLVWYQQKPGKAPKLLIYSTDNLQSGIPSRFSGSGSGTEYTLTISSLQPEDFATYFCYQYNNGFTFGQGTKVEIK
0.43 nM	0.000286 s⁻¹	664000 M⁻¹ s⁻¹	0.31 nM	0.000849 s⁻¹	2.74e+06 M⁻¹ s⁻¹	h7E7.L1H7 (antibody, V domains shown, VH: F91Y against h7E7.L1H1; FR/HVR pieces) VH: EVQLVQSGAEVKKPGASVKVSCKASGYTFTEYSIYWVRQAPGQRLEIIGRIDPKNGRTYYVDKFKNRATLTADTSASTAYMELSSLRSEDTAVYYCTRIYGFYFDFWGQGTLVTVSS VL: DIQLTQSPSFLSASVGDRVTITCKGSQNVNKYLVWYQQKPGKAPKLLIYNTDNLQSGIPSRFSGSGSGTEYTLTISSLQPEDFATYFCYQYNNGFTFGQGTKVEIK
0.4 nM	0.000359 s⁻¹	898000 M⁻¹ s⁻¹	0.4 nM	0.00129 s⁻¹	3.24e+06 M⁻¹ s⁻¹	h7E7.L1H5 (antibody, V domains shown, VH: L69I (printed L691) against h7E7.L1H1; FR/HVR pieces) VH: EVQLVQSGAEVKKPGASVKVSCKASGYTFTEYSIYWVRQAPGQRLEIIGRIDPKNGRTYYVDKFKNRATITADTSASTAYMELSSLRSEDTAVYFCTRIYGFYFDFWGQGTLVTVSS VL: DIQLTQSPSFLSASVGDRVTITCKGSQNVNKYLVWYQQKPGKAPKLLIYNTDNLQSGIPSRFSGSGSGTEYTLTISSLQPEDFATYFCYQYNNGFTFGQGTKVEIK
0.36 nM	0.000179 s⁻¹	493000 M⁻¹ s⁻¹	0.24 nM	0.000504 s⁻¹	2.06e+06 M⁻¹ s⁻¹	h7E7.L2H1 (antibody, V domains shown, VL: I58V against h7E7.L1H1; FR/HVR pieces) VH: EVQLVQSGAEVKKPGASVKVSCKASGYTFTEYSIYWVRQAPGQRLEIIGRIDPKNGRTYYVDKFKNRATLTADTSASTAYMELSSLRSEDTAVYFCTRIYGFYFDFWGQGTLVTVSS VL: DIQLTQSPSFLSASVGDRVTITCKGSQNVNKYLVWYQQKPGKAPKLLIYNTDNLQSGVPSRFSGSGSGTEYTLTISSLQPEDFATYFCYQYNNGFTFGQGTKVEIK
0.44 nM	0.000284 s⁻¹	641000 M⁻¹ s⁻¹	0.35 nM	0.000648 s⁻¹	1.85e+06 M⁻¹ s⁻¹	h7E7.L1H6 (antibody, V domains shown, VH: A71R against h7E7.L1H1; FR/HVR pieces) VH: EVQLVQSGAEVKKPGASVKVSCKASGYTFTEYSIYWVRQAPGQRLEIIGRIDPKNGRTYYVDKFKNRATLTRDTSASTAYMELSSLRSEDTAVYFCTRIYGFYFDFWGQGTLVTVSS VL: DIQLTQSPSFLSASVGDRVTITCKGSQNVNKYLVWYQQKPGKAPKLLIYNTDNLQSGIPSRFSGSGSGTEYTLTISSLQPEDFATYFCYQYNNGFTFGQGTKVEIK
0.4 nM	0.000243 s⁻¹	601000 M⁻¹ s⁻¹	0.27 nM	0.000749 s⁻¹	2.79e+06 M⁻¹ s⁻¹	h7E7.L1H4 (antibody, V domains shown, VH: A67V against h7E7.L1H1; FR/HVR pieces) VH: EVQLVQSGAEVKKPGASVKVSCKASGYTFTEYSIYWVRQAPGQRLEIIGRIDPKNGRTYYVDKFKNRVTLTADTSASTAYMELSSLRSEDTAVYFCTRIYGFYFDFWGQGTLVTVSS VL: DIQLTQSPSFLSASVGDRVTITCKGSQNVNKYLVWYQQKPGKAPKLLIYNTDNLQSGIPSRFSGSGSGTEYTLTISSLQPEDFATYFCYQYNNGFTFGQGTKVEIK
0.95 nM	0.00122 s⁻¹	1.28e+06 M⁻¹ s⁻¹	0.24 nM	0.000218 s⁻¹	920000 M⁻¹ s⁻¹	h7E7.L3H1 (antibody, V domains shown, VL: Y71F against h7E7.L1H1; FR/HVR pieces) VH: EVQLVQSGAEVKKPGASVKVSCKASGYTFTEYSIYWVRQAPGQRLEIIGRIDPKNGRTYYVDKFKNRATLTADTSASTAYMELSSLRSEDTAVYFCTRIYGFYFDFWGQGTLVTVSS VL: DIQLTQSPSFLSASVGDRVTITCKGSQNVNKYLVWYQQKPGKAPKLLIYNTDNLQSGIPSRFSGSGSGTEFTLTISSLQPEDFATYFCYQYNNGFTFGQGTKVEIK
2.1 nM	0.000806 s⁻¹	382000 M⁻¹ s⁻¹	1.03 nM	0.00107 s⁻¹	1.04e+06 M⁻¹ s⁻¹	h15C8.L1H2 (antibody, V domains shown, VH: L37V against h15C8.L1H1; FR/HVR pieces) VH: EVQLVQSGAEVKKPGASVKVSCKASGYTFTEHSIYWVRQAPGQRLEIIGRIDPKNGRTYFVDKFKNRATLTTDTSASTAYMELSSLRSEDTAVYFCARIDGFYFDFWGQGTLVTVSS VL: DIQLTQSPSFLSASVGDRVTITCKGSQNVNKYLVWYQQKPGKAPKLLIYSTDNLQSGIPSRFSGSGSGTEYTLTISSLQPEDFATYFCYQYNNGFTFGQGTKVEIK
0.56 nM	0.000324 s⁻¹	575000 M⁻¹ s⁻¹	0.32 nM	0.00104 s⁻¹	3.21e+06 M⁻¹ s⁻¹	h7E7.L5H1 (antibody, V domains shown, VL: I58V, Y71F, F87Y against h7E7.L1H1; FR/HVR pieces) VH: EVQLVQSGAEVKKPGASVKVSCKASGYTFTEYSIYWVRQAPGQRLEIIGRIDPKNGRTYYVDKFKNRATLTADTSASTAYMELSSLRSEDTAVYFCTRIYGFYFDFWGQGTLVTVSS VL: DIQLTQSPSFLSASVGDRVTITCKGSQNVNKYLVWYQQKPGKAPKLLIYNTDNLQSGVPSRFSGSGSGTEFTLTISSLQPEDFATYYCYQYNNGFTFGQGTKVEIK
1.15 nM	0.000558 s⁻¹	484000 M⁻¹ s⁻¹	0.71 nM	0.000567 s⁻¹	798000 M⁻¹ s⁻¹	h15C8.L1H5 (antibody, V domains shown, VH: A67V against h15C8.L1H1; FR/HVR pieces) VH: EVQLVQSGAEVKKPGASVKVSCKASGYTFTEHSIYWLRQAPGQRLEIIGRIDPKNGRTYFVDKFKNRVTLTTDTSASTAYMELSSLRSEDTAVYFCARIDGFYFDFWGQGTLVTVSS VL: DIQLTQSPSFLSASVGDRVTITCKGSQNVNKYLVWYQQKPGKAPKLLIYSTDNLQSGIPSRFSGSGSGTEYTLTISSLQPEDFATYFCYQYNNGFTFGQGTKVEIK
0.39 nM	0.000331 s⁻¹	845000 M⁻¹ s⁻¹	0.36 nM	0.00101 s⁻¹	2.78e+06 M⁻¹ s⁻¹	h7E7.L1H8 (antibody, V domains shown, VH: T93A against h7E7.L1H1; FR/HVR pieces) VH: EVQLVQSGAEVKKPGASVKVSCKASGYTFTEYSIYWVRQAPGQRLEIIGRIDPKNGRTYYVDKFKNRATLTADTSASTAYMELSSLRSEDTAVYFCARIYGFYFDFWGQGTLVTVSS VL: DIQLTQSPSFLSASVGDRVTITCKGSQNVNKYLVWYQQKPGKAPKLLIYNTDNLQSGIPSRFSGSGSGTEYTLTISSLQPEDFATYFCYQYNNGFTFGQGTKVEIK
1.05 nM	0.000558 s⁻¹	532000 M⁻¹ s⁻¹	0.59 nM	0.000498 s⁻¹	841000 M⁻¹ s⁻¹	h15C8.L1H4 (antibody, V domains shown, VH: I48M against h15C8.L1H1; FR/HVR pieces) VH: EVQLVQSGAEVKKPGASVKVSCKASGYTFTEHSIYWLRQAPGQRLEIMGRIDPKNGRTYFVDKFKNRATLTTDTSASTAYMELSSLRSEDTAVYFCARIDGFYFDFWGQGTLVTVSS VL: DIQLTQSPSFLSASVGDRVTITCKGSQNVNKYLVWYQQKPGKAPKLLIYSTDNLQSGIPSRFSGSGSGTEYTLTISSLQPEDFATYFCYQYNNGFTFGQGTKVEIK
0.44 nM	0.000274 s⁻¹	629000 M⁻¹ s⁻¹	0.27 nM	0.000796 s⁻¹	2.95e+06 M⁻¹ s⁻¹	h7E7.L4H1 (antibody, V domains shown, VL: F87Y against h7E7.L1H1; FR/HVR pieces) VH: EVQLVQSGAEVKKPGASVKVSCKASGYTFTEYSIYWVRQAPGQRLEIIGRIDPKNGRTYYVDKFKNRATLTADTSASTAYMELSSLRSEDTAVYFCTRIYGFYFDFWGQGTLVTVSS VL: DIQLTQSPSFLSASVGDRVTITCKGSQNVNKYLVWYQQKPGKAPKLLIYNTDNLQSGIPSRFSGSGSGTEYTLTISSLQPEDFATYYCYQYNNGFTFGQGTKVEIK
